We go through one substance from paper PMC8139424.

The assay addresses S2 fragment of the S protein (SARS-CoV-2). Description: SEC.

Broadly, the stoichiometry N is the number of molecules, sites or subunits per partner or assembly. “S2 fragment of the S protein (domain or fragment)” had a stoichiometry N of 3.
